Results reported in article PMC7949094, “Pantoea stewartii WceF is a glycan biofilm-modifying enzyme with a bacteriophage tailspike-like fold” (The Journal of Biological Chemistry, 2021).

Tests used:
[1] = target: the molecule itself; assay: SDS-PAGE without heating; purified HK620TSP and P22TSP in 2% (w/v) SDS, with or without heating for 5 min
[2] = target: the molecule itself; assay: SEC; size-exclusion chromatography of purified WceF (Fig. S2); conditions not shown
[3] = target: the molecule itself; assay: SDS-PAGE without heating

B1: bacteriophage P22 tailspike protein (natural protein)
chain: YDPDQYSIEADKKFKYSVKLSDYPTLQDAASAAVDGLLIDRDYNFYGGETVDFGGKVLTIECKAKFIGDGNLIFTKLGKGSRIAGVFMESTTTPWVIKPWTDDNQWLTDAAAVVATLKQSKTDGYQPTVSDYVKFPGIETLLPPNAKGQNITSTLEIRECIGVEVHRASGLMAGFLFRGCHFCKMVDANNPSGGKDGIITFENLSGDWGKGNYVIGGRTSYGSVSSAQFLRNNGGFERDGGVIGFTSYRAGESGVKTWQGTVGSTTSRNYNLQFRDSVVIYPVWDGFDLGADTDMNPELDRPGDYPITQYPLHQLPLNHLIDNLLVRGALGVGFGMDGKGMYVSNITVEDCAGSGAYLLTHESVFTNIAIIDTNTKDFQANQIYISGACRVNGLRLIGIRSTDGQGLTIDAPNSTVSGITGMVDPSRINVANLAEEGLGNIRANSFGYDSAAIKLRIHKLSKTLDSGALYSHINGGAGSGSAYTQLTAISGSTPDAVSLKVNHKDCRGAEIPFVPDIASDDFIKDSSCFLPYWENNSTSLKALVKKPNGELVRLTLATL
notes: also called P22TSP; source: purified
B1 was tested, and the “stoichiometry N” value [1] was 3.

B2: Pantoea stewartii WceF (residues 29-736, lacking the Tat signal peptide) (enzyme)
chain: KNTGLALKSVDATAIPKGDVPILTPENVYAMPPQFWQNFQGKLWIGRAGSDARQPGNQIPVFLRDANGNLAQITQPITLNKGNFDQFVKDNAALIANPSHAMALEDSNGQTVFNIPDVSQPGQAAFSQRLAQPAGYQLIGEIPSVDDLRKTRPLFEGAKIKLKSWHPGLEVGGGEFVGSFQPAQDDQGVIFSGDGFHWRRVVDDYNRLSLFDFGAIADGKTDSAPAIKAMYQWSQQSDQPICVQFPAGTFFVTGCDFGEEQRRFFRISGAMVNFGYFPATTIVSDGQSPFVFEVSARWVEISNLIFNGNTDTKPNRQGLLRNTCPGGQFFRGACLRFNNVGGTALSLLDTLDCKIDQWYASACTGDVIQAGWSGQKKGNWDHSTAIELSNFNAQHCKGGKVLNLPRCSQSLIHNGWIEHCDNPGDISNGQWIIDALSLEDCKNPLIAWHSRLNTRQTNLQSGSWIDNSEQGDRWLSAWEMGSTRVESYGVAIDGSLKYNYLTSRWLLENNTSQPVWYELANLYSPTVGDSWEIEVFGQSQFNNGTDSEPLMNLIDGRNTGGRAVIHVQRKKDHAEASWSAEGSSPVLDVRYVAKTDTDTQVFIRLAGWTPSAAIMIKSTAKDRFVTGRCARVDAKMAKATPDSGSHAAPQRFSLHNGKAGVGANEQGDLLLASRALSADNVDTRKPEGFVSVVINGKTVALPYFAIKA
notes: WceF of Pantoea stewartii subsp. stewartii DSM 30176, amplified from genomic DNA; recombinant construct residues 29-736 without the N-terminal 28 amino acids of the Tat signal peptide (the methods say aa 28-736); residues 34-736 resolved in the electron density; His6 tag followed by a TEV site, cleaved off for the purified protein; The forward primer encodes ...ENLYFQG-AKNTGL, so a glycine …
In the case of B2, the “stoichiometry N” value [2] is reported as 3.

B3: bacteriophage HK620 tailspike protein (natural protein)
chain: DPDQFRAIIESPEGAGHVGYQYRRNTGSTMRMVSDVLDERVSLWDFHCDPSGNVIQPGPNVDSRQYLQAAIDYVSSNGGGTITIPAGYTWYLGSYGVGGIAGHSGIIQLRSNVNLNIEGRIHLSPFFDLKPFQVFVGFDNGDPASSGNLENCHIYGHGVVDFGGYEFGASSQLRNGVAFGRSYNCSVTGITFQNGDVTWAITLGWNGYGSNCYVRKCRFINLVNSSVNADHSTVYVNCPYSGVESCYFSMSSSFARNIACSVELHQHDTFYRGSTVNGYCRGAYVVMHAAEAAGAGSYAYNMQVENNIAVIYGQFVILGSDVTATVSGHLNDVIVSGNIVSIGERAAFSAPFGAFIDIGPDNSGASNVQDIQRVLVTGNSFYAPANITDSAAITLRANLNGCTFIANNFDCRYMVYNAPGTTSPVVQNLVWDKSNVIGGTHANQRAGQNLFDMQFASVVNSTIEVQLSCEDLSMFSCILFPASCQLSYSKITVDSAWTKSMSNTAVFEGNQQAGANVYVSYPATVNLTSYNTQGAVPFFSTDTNYAWVTSAYSLSINENLDFSPPATYTNKANGQLVGVGYNEIGGVRSVSVRLMLQRQV
notes: also called HK620TSP; source: purified
For B3, the “stoichiometry N” value [3] was 3.
